Test results from patent US12145975B2, “Fusion proteins for the treatment of cardiometabolic diseases” (Shattuck Labs, Inc., priority 2022, dated 2024).
Blank lines part the entries; values can stand above or below the molecule they belong to.

Tests used:
[1] = molecular target: T1, recombinant human Activin A (Homo sapiens, UniProt P08476); assay: MSD platform-based binding assay to plate-bound Activin A; settings: anti-human Fc detection
T1 sequence (P08476 311-426): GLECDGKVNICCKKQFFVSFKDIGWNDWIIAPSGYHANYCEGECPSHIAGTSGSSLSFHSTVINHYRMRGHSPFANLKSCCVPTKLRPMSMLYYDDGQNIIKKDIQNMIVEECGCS
Method: (§1) The binding by a recombinant human ACVR2B-Fc fusion protein to activin A (also known as Inhibin beta A) was characterized using a Meso Scale Discovery (MSD) platform-based assay. Briefly, Activin A was coated on a plate and 8× serial dilutions of the purified recombinant human ACVR2B-Fc fusion protein were also added in a series of wells. The protein captured by the plate-bound Activin A was detected using an anti-human Fc antibody and a SULFO-TAG conjugated secondary antibody.
(§2) The binding to Activin A by the GLP-1-Fc-ACVR2B fusion protein produced using the mmRNA constructs was investigated using a Meso Scale Discovery (MSD) platform-based assay. Briefly, HEK293T cells were transfected with each mRNA construct using lipofectamine 2000, and culture supernatants were collected after 48 hours. Activin A was coated on a plate, and 3× serial dilutions of the culture supernatants were added to the plate for capture by the plate-bound Activin A. The protein captured by the plate-bound Activin A was detected using an anti-human Fc antibody and a SULFO-TAG conjugated secondary antibody. The MSD signals generated by the culture supernatants of HEK293T cells transfected with different mmRNA constructs were plotted as a line graph.

[2] = molecular target: T2, recombinant human GDF-8 (Homo sapiens, UniProt O14793); assay: MSD platform-based binding assay to plate-bound GDF-8; settings: anti-human Fc detection
T2 sequence (O14793 267-375): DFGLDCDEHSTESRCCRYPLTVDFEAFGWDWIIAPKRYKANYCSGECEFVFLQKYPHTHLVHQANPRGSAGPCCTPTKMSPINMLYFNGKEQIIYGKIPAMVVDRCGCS
Method: as §1, with “GDF-8” for “activin A”, “myostatin)” for “Inhibin beta A)”, “GDF-8” for “Activin A”
as §2, with “GDF-8” for “Activin A”, “GDF-8.” for “Activin A.”

[3] = molecular target: T3, GIP receptor (GIPR) (Rattus norvegicus, UniProt P43219); assay: cAMP-Glo assay in rat insulinoma INS-1 cells harboring a cAMP-luciferase reporter gene; assay type: cell-based; settings: 1 hour glucose, then 2 hour incubation with increasing amounts; FIG. 4A
T3 construct: endogenous in cells; host or cells: rat INS-1 insulinoma cells (derivatives with a cAMP-luciferase reporter or pGloSensor-22F)
T3 sequence (P43219 19-455): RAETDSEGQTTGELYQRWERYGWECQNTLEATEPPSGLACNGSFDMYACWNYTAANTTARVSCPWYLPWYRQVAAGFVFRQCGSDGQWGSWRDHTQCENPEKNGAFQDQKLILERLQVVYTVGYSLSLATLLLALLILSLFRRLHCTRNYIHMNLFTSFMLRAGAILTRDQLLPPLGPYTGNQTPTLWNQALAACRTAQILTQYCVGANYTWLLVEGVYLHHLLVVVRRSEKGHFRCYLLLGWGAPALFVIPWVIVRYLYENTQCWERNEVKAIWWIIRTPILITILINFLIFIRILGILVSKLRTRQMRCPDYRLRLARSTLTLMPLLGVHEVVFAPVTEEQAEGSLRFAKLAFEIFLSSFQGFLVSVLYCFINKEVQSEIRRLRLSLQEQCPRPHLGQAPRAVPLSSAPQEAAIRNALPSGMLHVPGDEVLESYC
Excerpt: Rat insulinoma INS-1 cells harboring a cAMP-luciferase reporter gene were used to study the activation of GIPR. Without wishing to be bound by theory, the activation of GIPR leads to temporary depletion of ATP because of consumption of ATP in cyclization reaction to produce cAMP as well as by phosphorylation by protein kinase A of its substrate. Without wishing to be bound by theory, the temporary depletion of ATP leads to an inhibition of luciferase activity, which needs ATP as a substrate.

[4] = test system: rat insulinoma INS-1 cells; assay: in vitro glucose-stimulated insulin secretion (GSIS) in rat insulinoma INS-1 cells; assay type: cell-based; settings: 1 hour glucose, then 2 hour incubation; ELISA; FIG. 4B
Excerpt: X is a known inducer of GSIS.

binding to Activin A [1]: binds to the human Activin A | binding to GDF-8 [2]: binds to the human GDF-8
Molecule: GLP-1-Fc-ACVR2B: GLP-1 fused to extracellular domain of ACVR2B via IgG1 Fc domain; SEQ ID NO: 154; tested as culture supernatant of mmRNA-transfected HEK293T cells

B1: GIP(Ag)-Fc-FGF19: chimeric protein: GIP fused to FGF19 via IgG1 hinge-CH2-CH3 Fc domain; SEQ ID NO: 88 (protein)
chain: YAEGTFISDYSIAMDKIHQQDFVNWLLAQKGKKNDWKHNITQPCPAPEAAGGPSVFLFPPKPKDTLMISRTPEVTCVVVDVSHEDPEVKFNWYVDGVEVHNAKTKPREEQYNSTYRVVSVLTVLHQDWLNGKEYKCKVSNKALPAPIEKTISKAKGQPREPQVYTLPPSRDELTKNQVSLTCLVKGFYPSDIAVEWESNGQPENNYKTTPPVLDSDGSFFLYSKLTVDKSRWQQGNVFSCSVMHEALHNHYTQKSLSLSPGKIEGRMDRDSSPLVHYGWGDPIRLRHLYTSGPHGLSSCFLRIRADGVVDCARGQSAHSLLEIKAVALRTVAIKGVHSVRYLCMGADGKMQGLLQYSEEDCAFEEEIRPDGYNVYRSEKHRLPVSLSSAKQRQLYKNRGFLPLSHFLPMLPMVPEEPEDLRGHLESDMFSSPLETDSMDPFGLVTGLEAVRSPSFEK
inhibition of luciferase (activation of GIPR) [3]: dose-dependent and saturable inhibition of luciferase with similar potency | insulin in the culture supernatant (glucose-stimulated insulin secretion) [4]: stimulated insulin production to a similar, if not greater magnitude than dulaglutide or tirzepatide
